According to US20250313636A1 (PARAGON THERAPEUTICS, published 2025):

How the values were obtained:
[1] = target: T1, α4β7 integrin expressed on cells (UniProt P13612 34-1032; P26010 20-798, limits assumed); assay: cell-based or functional assay
[2] = target: T2, α4β1 integrin expressed on cells (UniProt P13612 34-1032; P05556 21-798, limits assumed); assay: flow cytometry on Ramos cells
T2 construct: whole, on cells; also called α4β1 on Ramos cells; α4β1 on HuT-78 cells
Experimental: (§1) Antibody binding to α4β7 integrin or α4β1 integrin expressed on cells was determined using FACS and two cell lines. […] The second cell line was Ramos and is known to only express α4β1. Briefly, cells were cultured and harvested according to standard vendor instructions. Cells were stained with purified antibodies at concentrations of 0 nM, 0.0064 nM, 0.032 nM, 0.16 nM, 0.8 nM, 4 nM, 20 nM, and 100 nM and incubated at 4° C. for 1 hour. Cells were subsequently stained with an Alexa Fluor 488-conjugated goat anti-human IgG secondary antibody at a 1:1000 dilution. Cells were incubated 4° C. for 1 hour, protected from light. Cells were then washed and the MFI of cells in each well were recorded by FACS using a flow cytometer. Subsequent data were analyzed using GraphPad Prism. […] On the other hand, an anti-α4 antibody tested binds to both cell lines.

[3] = target: T1, α4β7 integrin expressed on cells; assay: flow cytometry on RPMI-8866 cells (α4β7 only)
Experimental: as §1

[4] = target: T3, recombinant human α4β7 integrin (human, UniProt P13612 34-977; P26010 20-723, limits assumed); assay: SPR, antibody captured on anti-human Fc CM5 chip, recombinant human α4β7 integrin as analyte, 25 °C, 1:1 model
Experimental: (§2) Following a stabilization period in running buffer, antibodies previously diluted to 1-1.5 μg/mL were captured on the chip for 30 seconds at a flow rate of 10 μL/min. Subsequently, recombinant human α4β7 integrin was prepared at concentrations of 1.563 nM, 3.125 nM, 6.25 nM, 12.5 nM, 25 nM, 50 nM and 100 nM and injected at a flow rate of 30 μL/min for 180 seconds followed by a dissociation phase with just running buffer at a flow rate of 30 μL/min for 1200 seconds. Samples were injected in a multi-cycle manner over freshly captured mAb, by regenerating the capture surfaces with injection of 10 mM Glycine, pH 1.5. The data was processed and analyzed with SPR analysis software, where sensorgrams were fit to a 1:1 binding model to determine the apparent association (ka) and dissociation rate constants (kd). Their ratio provided the apparent equilibrium dissociation constant or affinity constant (KD=kd/ka).

[5] = target: T3, recombinant human α4β7 integrin; assay: SPR, antibody captured on anti-human Fc CM5 chip, recombinant human α4β7 integrin as analyte, 25 °C, 1:1 model; apparent KD
Experimental: as §2

T1 sequence (P13612 34-1032 limits assumed, chain 1 of 2): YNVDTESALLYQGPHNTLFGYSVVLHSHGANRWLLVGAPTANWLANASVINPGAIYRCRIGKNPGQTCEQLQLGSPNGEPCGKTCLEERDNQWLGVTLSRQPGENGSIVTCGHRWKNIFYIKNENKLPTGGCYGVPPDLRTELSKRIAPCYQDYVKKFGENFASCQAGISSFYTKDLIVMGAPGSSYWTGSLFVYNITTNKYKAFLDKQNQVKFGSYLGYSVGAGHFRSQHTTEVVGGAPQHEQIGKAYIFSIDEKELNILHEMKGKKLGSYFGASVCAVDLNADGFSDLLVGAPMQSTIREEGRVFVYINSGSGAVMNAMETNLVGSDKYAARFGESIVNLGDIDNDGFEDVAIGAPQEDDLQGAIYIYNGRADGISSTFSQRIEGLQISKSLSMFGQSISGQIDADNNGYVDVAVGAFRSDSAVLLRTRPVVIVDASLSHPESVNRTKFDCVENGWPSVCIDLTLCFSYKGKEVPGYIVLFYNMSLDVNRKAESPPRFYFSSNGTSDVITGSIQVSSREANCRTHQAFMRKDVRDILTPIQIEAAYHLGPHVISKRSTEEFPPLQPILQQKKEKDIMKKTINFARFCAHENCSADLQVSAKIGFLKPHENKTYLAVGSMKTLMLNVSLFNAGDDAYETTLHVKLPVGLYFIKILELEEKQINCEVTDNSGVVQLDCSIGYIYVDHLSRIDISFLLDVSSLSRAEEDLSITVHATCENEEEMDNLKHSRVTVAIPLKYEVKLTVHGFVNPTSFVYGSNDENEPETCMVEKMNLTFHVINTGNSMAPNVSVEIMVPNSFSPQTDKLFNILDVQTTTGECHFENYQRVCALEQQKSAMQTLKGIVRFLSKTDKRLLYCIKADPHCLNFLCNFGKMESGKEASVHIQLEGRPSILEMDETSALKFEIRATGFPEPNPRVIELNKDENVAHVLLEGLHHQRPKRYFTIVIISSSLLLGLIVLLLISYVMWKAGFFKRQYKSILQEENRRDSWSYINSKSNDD
T1 sequence (P26010 20-798 limits assumed, chain 2 of 2): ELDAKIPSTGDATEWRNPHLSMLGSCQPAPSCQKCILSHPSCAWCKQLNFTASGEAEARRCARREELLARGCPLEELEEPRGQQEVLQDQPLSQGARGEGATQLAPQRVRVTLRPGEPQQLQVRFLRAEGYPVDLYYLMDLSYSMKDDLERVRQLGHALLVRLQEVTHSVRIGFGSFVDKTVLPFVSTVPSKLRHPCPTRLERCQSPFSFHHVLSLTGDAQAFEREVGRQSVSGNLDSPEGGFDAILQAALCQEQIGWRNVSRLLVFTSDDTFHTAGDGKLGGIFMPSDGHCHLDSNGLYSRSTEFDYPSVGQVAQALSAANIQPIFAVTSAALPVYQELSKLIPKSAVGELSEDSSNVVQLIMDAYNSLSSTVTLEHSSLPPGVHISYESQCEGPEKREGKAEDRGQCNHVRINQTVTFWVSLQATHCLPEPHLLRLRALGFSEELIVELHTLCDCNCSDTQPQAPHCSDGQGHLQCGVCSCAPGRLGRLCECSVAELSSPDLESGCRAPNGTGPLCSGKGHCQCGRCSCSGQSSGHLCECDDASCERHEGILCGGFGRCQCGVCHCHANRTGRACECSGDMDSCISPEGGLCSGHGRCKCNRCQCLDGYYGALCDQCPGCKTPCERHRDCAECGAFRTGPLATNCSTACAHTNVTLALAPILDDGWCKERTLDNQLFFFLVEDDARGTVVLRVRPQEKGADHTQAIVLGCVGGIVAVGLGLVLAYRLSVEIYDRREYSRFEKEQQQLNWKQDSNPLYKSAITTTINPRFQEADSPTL
T3 sequence (P13612 34-977 limits assumed, chain 1 of 2): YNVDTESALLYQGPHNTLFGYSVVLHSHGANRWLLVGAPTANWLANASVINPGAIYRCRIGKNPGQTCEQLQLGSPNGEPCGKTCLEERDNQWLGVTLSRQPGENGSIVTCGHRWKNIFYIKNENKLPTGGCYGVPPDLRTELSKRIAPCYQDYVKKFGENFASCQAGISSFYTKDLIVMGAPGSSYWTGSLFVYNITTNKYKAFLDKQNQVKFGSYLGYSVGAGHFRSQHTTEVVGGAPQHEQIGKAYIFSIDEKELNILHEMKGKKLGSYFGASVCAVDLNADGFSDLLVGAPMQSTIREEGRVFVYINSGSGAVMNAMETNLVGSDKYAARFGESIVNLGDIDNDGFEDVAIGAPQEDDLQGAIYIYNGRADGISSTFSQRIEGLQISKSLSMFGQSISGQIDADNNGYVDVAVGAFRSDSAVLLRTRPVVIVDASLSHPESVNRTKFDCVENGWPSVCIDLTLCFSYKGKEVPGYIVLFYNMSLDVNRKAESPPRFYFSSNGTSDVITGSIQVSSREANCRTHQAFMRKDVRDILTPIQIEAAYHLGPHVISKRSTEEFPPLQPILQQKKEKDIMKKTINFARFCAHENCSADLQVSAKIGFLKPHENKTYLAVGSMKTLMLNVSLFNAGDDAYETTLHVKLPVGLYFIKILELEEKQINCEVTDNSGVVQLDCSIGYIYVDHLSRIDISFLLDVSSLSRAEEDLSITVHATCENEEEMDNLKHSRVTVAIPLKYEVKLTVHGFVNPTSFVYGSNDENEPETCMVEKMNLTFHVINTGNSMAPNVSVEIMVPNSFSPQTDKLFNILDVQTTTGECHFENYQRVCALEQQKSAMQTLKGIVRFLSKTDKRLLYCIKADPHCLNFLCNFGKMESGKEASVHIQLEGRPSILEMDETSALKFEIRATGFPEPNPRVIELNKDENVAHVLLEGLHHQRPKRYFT
T3 sequence (P26010 20-723 limits assumed, chain 2 of 2): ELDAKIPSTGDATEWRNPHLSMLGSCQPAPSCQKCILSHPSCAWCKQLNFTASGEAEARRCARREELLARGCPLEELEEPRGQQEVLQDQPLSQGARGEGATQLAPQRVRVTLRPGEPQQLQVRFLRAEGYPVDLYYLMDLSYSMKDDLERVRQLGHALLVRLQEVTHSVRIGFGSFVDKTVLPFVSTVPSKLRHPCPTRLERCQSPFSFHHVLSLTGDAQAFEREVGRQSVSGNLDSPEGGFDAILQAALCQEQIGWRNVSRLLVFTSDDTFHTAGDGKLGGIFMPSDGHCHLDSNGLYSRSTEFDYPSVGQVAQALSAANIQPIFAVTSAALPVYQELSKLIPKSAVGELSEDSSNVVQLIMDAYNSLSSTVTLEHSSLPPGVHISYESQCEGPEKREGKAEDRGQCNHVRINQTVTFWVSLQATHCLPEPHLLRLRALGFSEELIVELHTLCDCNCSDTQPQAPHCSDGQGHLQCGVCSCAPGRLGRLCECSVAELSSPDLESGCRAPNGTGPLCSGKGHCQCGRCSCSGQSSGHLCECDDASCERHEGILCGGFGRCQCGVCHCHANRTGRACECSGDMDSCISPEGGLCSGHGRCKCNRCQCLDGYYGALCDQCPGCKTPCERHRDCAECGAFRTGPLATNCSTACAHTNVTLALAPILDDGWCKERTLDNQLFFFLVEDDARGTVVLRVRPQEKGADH
T2 sequence (P13612 34-1032 limits assumed, chain 1 of 2): as the sequence (P13612 34-1032 limits assumed, chain 1 of 2) above
T2 sequence (P05556 21-798 limits assumed, chain 2 of 2): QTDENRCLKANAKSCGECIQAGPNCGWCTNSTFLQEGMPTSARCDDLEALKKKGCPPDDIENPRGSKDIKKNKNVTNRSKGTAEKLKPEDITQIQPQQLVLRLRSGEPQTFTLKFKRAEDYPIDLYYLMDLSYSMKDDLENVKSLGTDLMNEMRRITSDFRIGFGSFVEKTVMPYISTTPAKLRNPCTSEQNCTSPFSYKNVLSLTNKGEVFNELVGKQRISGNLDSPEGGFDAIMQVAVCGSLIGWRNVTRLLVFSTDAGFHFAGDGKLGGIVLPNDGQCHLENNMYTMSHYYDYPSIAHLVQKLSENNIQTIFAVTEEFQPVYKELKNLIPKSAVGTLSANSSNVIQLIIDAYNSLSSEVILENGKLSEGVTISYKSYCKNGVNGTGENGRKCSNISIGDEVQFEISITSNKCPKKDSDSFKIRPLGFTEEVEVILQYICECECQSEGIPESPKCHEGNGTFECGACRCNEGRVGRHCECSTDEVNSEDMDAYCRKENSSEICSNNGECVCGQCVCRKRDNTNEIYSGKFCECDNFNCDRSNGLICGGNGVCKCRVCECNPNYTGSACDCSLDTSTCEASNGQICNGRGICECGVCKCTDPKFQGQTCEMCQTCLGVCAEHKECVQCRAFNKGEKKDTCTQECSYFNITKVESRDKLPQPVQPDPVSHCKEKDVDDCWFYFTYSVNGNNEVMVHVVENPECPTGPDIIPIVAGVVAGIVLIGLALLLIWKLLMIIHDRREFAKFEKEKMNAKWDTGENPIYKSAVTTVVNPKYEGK

| Binder | MAdCAM-1 Adhesion Inhibition IC50 [1] [pM] | binding result [2] | EC50 [3] [pM] | koff [4] [s⁻¹] | kon [4] [M⁻¹ s⁻¹] | Kd [5] [pM] |
| --- | --- | --- | --- | --- | --- | --- |
| Antibody 1 (antibody, V domains shown, It has a human Fc: captured by anti-human Fc in SPR, detected by anti-human IgG in FACS) VH: EVQLVQSGAEVKKPGSSVKVSCKASGGTFTSYWMHWVRQAPGQGLEWMGEIDPSESNTNYNQKFKGRATITADISTSTAYMELSSLRSEDTAVYYCARGGYDGWDYAIDYWGQGTLVTVSS VL: DVVMTQTPLSLPVTPGQPASISCRSSQSLAKSYGNTYLSWYLQKPGQSPQLLIYGISNRFSGVPDRFSGSGSGTDFTLKISRVEAEDVGVYYCLQGTHQPYTFGQGTKLEIK | 87 | no binding (tested: 100 nM (highest concentration tested)) | 200 | 0.000466 | 68500 | 6790 |
| Antibody 2 (antibody, V domains shown, It has a human Fc: captured by anti-human Fc in SPR, detected by anti-human IgG in FACS) VH: EVQLVESGGGVVQPGRSLRLSCAASGYTFTSYWMHWVRQAPGKGLEWIGEIDPSESNTNYNQKFKGRATISVDNSKNTAYLQMSSLRAEDTAVYYCARGGYDGWDYAIDYWGQGTLVTVSS VL: DVVMTQTPLSLPVTPGQPASISCRSSQSLAKSYGNTYLSWYLQKPGQSPQLLIYGISNRFSGVPDRFSGSGSGTDFTLKISRVEAEDVGVYYCLQGTHQPYTFGQGTKLEIK | 150 | no binding (tested: 100 nM (highest concentration tested)) | 270 | 0.000118 | 56400 | 2100 |
